This is an account of results in publication PMC2190708 (Nucleic Acids Research, 2007).

As usually defined, the Km is the substrate concentration at which the rate is half of its maximum.

The target of one data set is T1, CthPnkp (Acetivibrio thermocellus, UniProt A3DJ38).
T1 sequence (A3DJ38 1-870): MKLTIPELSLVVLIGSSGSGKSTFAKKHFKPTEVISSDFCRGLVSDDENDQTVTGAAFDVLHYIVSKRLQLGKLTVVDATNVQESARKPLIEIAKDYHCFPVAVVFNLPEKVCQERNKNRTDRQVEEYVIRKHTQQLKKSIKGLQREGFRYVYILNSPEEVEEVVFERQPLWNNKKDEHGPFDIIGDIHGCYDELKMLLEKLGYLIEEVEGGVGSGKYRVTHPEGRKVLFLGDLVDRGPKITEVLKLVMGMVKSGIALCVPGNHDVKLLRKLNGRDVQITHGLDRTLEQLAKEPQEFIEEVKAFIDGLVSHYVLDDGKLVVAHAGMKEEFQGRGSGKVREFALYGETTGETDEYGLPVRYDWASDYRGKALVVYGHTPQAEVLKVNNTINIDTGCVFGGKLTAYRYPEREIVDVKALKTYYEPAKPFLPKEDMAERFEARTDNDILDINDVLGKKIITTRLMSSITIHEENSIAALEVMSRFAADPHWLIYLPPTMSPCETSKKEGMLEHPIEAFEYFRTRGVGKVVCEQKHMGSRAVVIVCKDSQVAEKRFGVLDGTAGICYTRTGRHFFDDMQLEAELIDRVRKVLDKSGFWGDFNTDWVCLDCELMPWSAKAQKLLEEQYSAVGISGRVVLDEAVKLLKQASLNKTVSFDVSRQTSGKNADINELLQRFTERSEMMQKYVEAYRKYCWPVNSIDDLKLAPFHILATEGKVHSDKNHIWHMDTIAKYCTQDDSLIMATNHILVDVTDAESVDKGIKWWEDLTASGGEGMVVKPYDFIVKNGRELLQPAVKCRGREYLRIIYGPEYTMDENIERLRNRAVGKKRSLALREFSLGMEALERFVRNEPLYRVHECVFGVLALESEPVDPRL
As to the kind of experiment: p-nitrophenol release. It is filed as biochemical. The settings on record: Tris-HCl pH 7.0, 0.5 mM MnCl2, data not shown.

Substrate in data set [1]: O=[N+]([O-])c1ccc(OP(=O)(O)Oc2ccc([N+](=O)[O-])cc2)cc1
As to the kind of experiment: purified protein. The settings on record: Mn2+; exact conditions of titration not given, data not shown.

Substrate in data set [2]: O=[N+]([O-])c1ccc(OP(=O)(O)O)cc1
The experiment in a line: purified protein. The settings on record: Mn2+; exact conditions of titration not given, data not shown.

`O=[N+]([O-])c1ccc(OP(=O)(O)c2ccccc2)cc1` [compound ②, p-nitrophenyl phenylphosphonate]: on CthPnkp, the Km is 67 mM.

B1: λ-Pase (Escherichia phage Lambda) (protein)
chain: MRYYEKIDGSKYRNIWVVGDLHGCYTNLMNKLDTIGFDNKKDLLISVGDLVDRGAENVECLELITFPWFRAVRGNHEQMMIDGLSERGNVNHWLLNGGGWFFNLDYDKEILAKALAHKADELPLIIELVSKDKKYVICHADYPFDEYEFGKPVDHQQVIWNRERISNSQNGIVKEIKGADTFIFGHTPAVKPLKFANQMYIDTGAVFCGNLTLIQVQGEGA
As for B1, the Km in “purified protein [1]” was determined as 10 ± 1.6 mM; in the data set “purified protein [2]” it was 5.0 ± 0.1 mM.
